The series in a line: label from the status in PepcDB records.
As to “MMKSLGSIRRSFAPWADPASKPFISVKNVTKKFGDFTAVDDLSLNIYTREFFALLGASGCGKSTLLRMLAGFEQPTSGEIILDGQSLAGIPPYRRPVNMMFQSYALFPHMTVENNVAFGLKQDGMPKADIAERVAQMLKLVKLEKFAKRKPHQLSGGQRQRVALARSLAKRPKVLLLDEPLGALDKKLREETQFELMDLQQELGLTFVVVTHDQEEAMTMADRIAVMSHGKVVQVATPAEIYEAPNSRFVADFIGDVNIFDGKVTSAEDGYIRVETTGGIPVRMASPEKPGNGAKAAVAIRPEKIRIGRQPPAHAPVNAAEGEIWDIGYLGDMTVFHIRLKDGKVVKASSLNAVRAVEDPLGYDQQVWISFGDDAGVVLKD”, the protein production entry was “failed”.
With “MMMGRIKPTDGTAGNPEFNAELVAEKIEAITSPPPAPDTSEPDAAASQPAAPQTAAPPAQTVAQPAPVTPPIVSEPPAPQQAAAAPQPAVDESALRYFASRGDKVRLQAEISRLQALYPNWVPPADPLAVPQNGDKQLEAMWQLYSDGRYAELRKAVADRQAADAGWQPPADLLDRLDVAEGRARLVNASDLKQYATVVDIAAATPSLLTCSEIDVLWRVAEAFIQTERAQRGQDAYTYILKNCTNPAERQATVEKASTLLAYQPMQALLALERPAADGSKEFDAIRDNLARRFMAEGDDEPNLAIAPDYIARLEKLAETQGLASDALLLGWYQLRRNNDADAEKWFRAARAKQDSAAASQGLALALIARKAPEEAEDVMFRWRADSDDATSTYLAATANLMALQPPADLAEDVLHRIAGEVIARKYVPTAQQFGWYARSLNQFQTAARWFETALAWKPDDEPSAYGLVITREQLSDRKGVLDLQRAWAGRSSRITNLEDTSSLMPNAVTPPPAKGTLAAQQPAQPTQHPPAEPLPAERRVILQPGSEVVVRAARPSMETVNVPRGPRQTRGCSTTIDAGQLKPADALSRGWCLMDINRPMEAISAFESALQSPSRKVREDAAYGQSLAYLRAGLSGNAAVAATKAPQNRQRAAELQVAILADRALSAFDAGRYRETLIYLDQRAQLQQERIDLMVLRGYCYLNLKMYGDATRIFEAAAATGSRDAARGLADVRNVTHPDVND”, the protein production entry is “failed”.
Take “MMMHPMNKTNKRDKMEKRNNPSALNIFMSFLKLGMVAFGGPTAIAYVREMVVDEKKWMDEKSFNNGVALAQIIPGASVMQVAAYVGFYLRGIVGAFAAFMAYALPAFLIMLFLTIIYMHVKSLPKTVSIFEALRIIVVSLAANGTLNFSKKNIRTIGDVFLLLISALLFILKFSPFIVIFVSIFIGFLMYRRDITKLSLKIDIPREKLRIYKYVAYLLFGVFLFNLILYMIDSKLFLLSTLMMKVDVFAFGGGYGSVPFMLHEVVDKYNLMDAKTFMDGIALGQITPGPIVITATFVGYIVGGFIGSIISTISVFTPSFIILLSSIPIFDSLKHNTIFKNILHMILVSFVGLLVAVTIRFALLVDWSIQALIIFIVSFLLLYKKYNMLLVVLLSLVLGYLIL”: the protein production result is listed as “failed”.
As for “MMMYKEPFGVKVDFETGIIEGAKKSVRRLSDMEGYFVDERAWKELVEKEDPVVYEVYAVEQEEKEGDLNFSTHVIYPGKVGKEFFFAKGHFHAKLDRAQVAVALKGKGGVLMQTPEGDAKWISSEPGTVIYSPPYWAARAVNIGDEPFIMLVIYPADAGHDYGTIAEKGFSKIVIEENGEVKVVDNPRWKKGSLEHHHHHH”, the entry is “not failed”.
As for “MMNDRFTRIKWLVGEEKFQKISQTKVLVCGLGGVGGICVDALYRSGFKNLTLIDADKFEITNQNRQIHSENIGEEKAKVFERIYKVKGIVSKIDENFLKNFDLSEFDLIIDAIDDIPAKVALAHLIDFKKQIFISSTGGARKLDPTRIKTTSIFKTHGDALAKKFRYELRKSGFKGNFDVVFSDEEAHCKDLGSFMGVTASFGLALASLALRKVLAKKS”, the entry is “failed”; as for “MMNEPQVSFITVCYNGFKDTCELIESLQTHVHSVSYEIIVVDNASREDEATKIKELYSDIVTLRSESNLGFSGGNNLGIRVAKGAYIFLINNDTYVESDGFHYLTERLESQKNIGAVSPKIRFAFPPQNIQFAGFTSLSAITIRNEMTGFGCPDDGTFDTPHTTPYLHGAALMVKREVIEKVGEMPEIFFLYYEEMDWCTQMTNAGYELWYEPRCTVFHKESQSTGQFSKLRTFYMTRNRLLYTRRNRKGAQRLLSILYQSTIAAGKNSLQFAVKGRFDLFAAVWKGVVRSFSVTSPIRLEHHHHHH”, “failed”.
As for “MMNTPESRLVAAGLELPEVAAALGNYEPYSIVGSQLMTSGQFPYLQGKLLYQGQLGADYTVSEGYAACRLATLNAIAQLKQACGELSRIKQIYRLEGVLNVHQSCIEHPKALDGASDLLLEIFGEAGRHSRMIWTNPVMPLNSLCLVYLFAEL”, the entry is “not failed”.

(Values after a protein production outcome set (Wang et al. 2014).)
